Reference: PMC3919264

Experiments:
[1] = molecular target: taxol-polymerized microtubules from bovine brain tubulin (bovine (purified from bovine brain)) (UniProt Q6B856)
[2] = molecular target: taxol-polymerized microtubules from bovine brain tubulin (bovine (purified from bovine brain)) (UniProt Q6B856); remark: listed apart in the source
[3] = molecular target: taxol-polymerized microtubules from bovine brain tubulin (bovine (purified from bovine brain)) (UniProt Q6B856); experiment: co-sedimentation; MT pelleting assay with 2 mM AMP-PNP: Kif15 19-375 (1–12 µM) mixed with taxol-polymerized MTs (5 µM), 50 mM PIPES pH 6.9, 20 mM NaCl, 2 mM MgCl2, 1 mM DTT, room temperature 10 min, 100 000g at 25°C for 20 min, SDS–PAGE of supernatants and pellets
[4] = molecular target: taxol-polymerized microtubules from bovine brain tubulin (bovine (purified from bovine brain)) (UniProt Q6B856); experiment: co-sedimentation; MT pelleting assay with 4 mU apyrase ('nucleotide-free' state): Kif15 19-375 (1–12 µM) mixed with taxol-polymerized MTs (5 µM), 50 mM PIPES pH 6.9, 20 mM NaCl, 2 mM MgCl2, 1 mM DTT, room temperature 10 min, 100 000g at 25°C for 20 min, SDS–PAGE of supernatants and pellets

K 0.5,MT of the MT-stimulated ATPase activity (MTs 0 to 10 µM, 1 mM ATP, no KCl, 25°C) [1]: 1.1 µM | MT activation of Mant-ADP release, stopped flow, 25°C, various MT concentrations with chasing Mg2+-ATP (MTs here from pig brain tubulin; preliminary data) [2]: 1000 fold | Kd [3]: 500 nM | stoichiometry N [3]: 1.1 | Kd [4]: 400 nM | stoichiometry N [4]: 1.3
B1: Homo sapiens Kif15 motor domain and neck-linker region (Kif15 19-375) (domain or fragment)
chain: QPSNEGDAIKVFVRIRPPAERSGSADGEQNLCLSVLSSTSLRLHSNPEPKTFTFDHVADVDTTQESVFATVAKSIVESCMSGYNGTIFAYGQTGSGKTFTMMGPSESDNFSHNLRGVIPRSFEYLFSLIDREKEKAGAGKSFLCKCSFIEIYNEQIYDLLDSASAGLYLREHIKKGVFVVGAVEQVVTSAAEAYQVLSGGWRNRRVASTSMNRESSRSHAVFTITIESMEKSNEIVNIRTSLLNLVDLAGSERQKDTHAEGMRLKEAGNINRSLSCLGQVITALVDVGNGKQRHVCYRDSKLTFLLRDSLGGNAKTAIIANVHPGSRCFGETLSTLNFAQRAKLIKNKAVVNEDTQG
